The labels stand for the following.
B1: Protein maternal effect lethal 26 (Caenorhabditis elegans), Q94420 (parent)
chain: MEPRIDGGVFIGGIGNSGNEMCSNGVPALGVSSQTEIKVEKVQHTWTVKNFSHCYQEYLENFVYLQRGDEQLTWSIKIYPKGNGENNKDFVFLCLNRVINNNVKAGKIGFKSQFKLRTAENKDIEMRIHPNPSHSDYVSYIKRDVLFPQIMPRDMIIVNVEIDVAVETITTTNEPIQFEPTNSEQQLIEDYQRLFSQELLCDFAINVNGKIIRAHKAVLAARSPVFNAMLTHQDTDEAKSSMMYINDMDYDVIYEMVYYIYCGRCNKDITDMATALLIAADKYRLEELKSHCEKYLVENINIENACSLLIIGDLYSAPKLRKRAVTYILARPKNVTGTPGWEDILKGHPNLITDIFSQIDRQSSTGATSSVSNLPGVPMDIPGITGNIVPPPSGL
B2: Protein maternal effect lethal 26 (Caenorhabditis elegans), Q94420 (parent)
chain: B1 chain
partner: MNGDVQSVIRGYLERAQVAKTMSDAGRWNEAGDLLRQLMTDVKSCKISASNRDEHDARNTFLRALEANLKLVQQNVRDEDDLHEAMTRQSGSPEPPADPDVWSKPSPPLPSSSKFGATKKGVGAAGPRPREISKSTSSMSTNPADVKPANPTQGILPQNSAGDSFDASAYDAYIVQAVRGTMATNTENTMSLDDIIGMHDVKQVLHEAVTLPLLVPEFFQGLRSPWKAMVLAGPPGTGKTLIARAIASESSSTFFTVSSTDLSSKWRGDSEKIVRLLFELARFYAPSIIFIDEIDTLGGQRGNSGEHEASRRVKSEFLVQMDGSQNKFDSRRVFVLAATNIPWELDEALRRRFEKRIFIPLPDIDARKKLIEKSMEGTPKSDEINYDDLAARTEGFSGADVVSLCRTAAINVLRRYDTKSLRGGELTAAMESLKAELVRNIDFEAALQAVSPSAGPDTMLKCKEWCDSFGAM
B3: Meiotic spindle formation protein mei-1 (Caenorhabditis elegans), P34808 (parent)
chain: B2 partner
partner: B1 chain

Variants of B1 are the subject of the first assay. Particulars: with pp4r1_caeel ppfr-1, G5ECH5.
pp4r1_caeel ppfr-1, G5ECH5, sequence (G5ECH5 whole entry): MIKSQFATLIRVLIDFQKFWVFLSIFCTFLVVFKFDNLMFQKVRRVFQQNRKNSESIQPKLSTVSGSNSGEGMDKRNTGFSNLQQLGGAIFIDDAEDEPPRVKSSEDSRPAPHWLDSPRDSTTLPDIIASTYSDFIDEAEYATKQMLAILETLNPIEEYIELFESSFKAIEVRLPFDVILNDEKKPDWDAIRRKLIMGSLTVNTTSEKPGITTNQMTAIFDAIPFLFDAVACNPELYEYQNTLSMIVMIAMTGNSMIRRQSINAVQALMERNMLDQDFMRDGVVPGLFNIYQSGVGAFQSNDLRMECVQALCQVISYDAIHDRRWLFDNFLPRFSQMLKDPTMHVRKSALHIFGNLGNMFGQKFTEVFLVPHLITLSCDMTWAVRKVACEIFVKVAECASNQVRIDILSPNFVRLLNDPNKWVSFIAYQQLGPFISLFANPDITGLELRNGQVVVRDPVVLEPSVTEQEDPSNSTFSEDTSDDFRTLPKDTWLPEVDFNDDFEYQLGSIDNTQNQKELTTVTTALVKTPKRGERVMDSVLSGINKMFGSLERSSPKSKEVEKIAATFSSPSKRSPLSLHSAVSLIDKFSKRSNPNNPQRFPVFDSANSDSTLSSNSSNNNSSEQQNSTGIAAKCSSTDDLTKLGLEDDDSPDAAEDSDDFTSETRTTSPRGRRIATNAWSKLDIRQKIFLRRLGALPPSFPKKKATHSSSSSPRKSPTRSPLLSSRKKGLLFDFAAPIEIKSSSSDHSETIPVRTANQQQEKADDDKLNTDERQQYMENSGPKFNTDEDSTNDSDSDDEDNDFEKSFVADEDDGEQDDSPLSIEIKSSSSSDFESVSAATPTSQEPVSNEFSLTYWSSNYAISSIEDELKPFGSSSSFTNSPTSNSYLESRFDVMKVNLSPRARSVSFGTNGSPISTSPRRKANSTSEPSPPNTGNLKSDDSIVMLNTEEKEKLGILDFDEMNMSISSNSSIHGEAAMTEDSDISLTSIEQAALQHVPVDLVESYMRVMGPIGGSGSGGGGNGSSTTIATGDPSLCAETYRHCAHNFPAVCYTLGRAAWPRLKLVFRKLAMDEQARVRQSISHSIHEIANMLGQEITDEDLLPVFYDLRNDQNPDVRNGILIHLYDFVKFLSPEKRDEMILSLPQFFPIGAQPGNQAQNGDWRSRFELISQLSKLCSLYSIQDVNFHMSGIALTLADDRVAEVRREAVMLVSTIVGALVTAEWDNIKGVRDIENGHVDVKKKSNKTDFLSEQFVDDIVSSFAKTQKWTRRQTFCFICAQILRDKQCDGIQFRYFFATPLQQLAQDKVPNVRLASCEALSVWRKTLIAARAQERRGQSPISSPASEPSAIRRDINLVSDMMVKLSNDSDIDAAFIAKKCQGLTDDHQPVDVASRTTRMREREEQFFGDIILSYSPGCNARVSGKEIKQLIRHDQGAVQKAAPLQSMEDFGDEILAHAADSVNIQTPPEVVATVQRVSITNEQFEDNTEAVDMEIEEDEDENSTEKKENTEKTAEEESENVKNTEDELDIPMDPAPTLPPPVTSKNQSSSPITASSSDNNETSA
In the case of C94Y, the “effect of a mutation on the interaction” value is reported as “disrupting interaction strength”.

In the next assay the parent is B2. Particulars: with ktna1_caeel mei-1, P34808.
With C94Y, the “effect of a mutation on the interaction” value was “disrupting interaction strength”.

The variants in the next assay derive from B3. Particulars: with mel26_caeel mel-26, Q94420.
As to S92A, the “effect of a mutation on the interaction” value is recorded as “disrupting interaction strength”.

Source of the values: IntAct's records for PubMed 23918937.
